In patent publication US20140178293A1, “METHODS FOR IMAGING BONE PRECURSOR CELLS USING DUAL-LABELED IMAGING AGENTS TO DETECT MMP-9 POSITIVE CELLS” (BAYLOR COLLEGE OF MEDICINE, priority 2011, published 2014):
No end group written: not given here.

Key:
[1] = format: physicochemical
Protocol: The lipophilicity of ^68Ga-M2 was assessed by determination of the water-octanol partition coefficient. 1-Octanol (1 mL) was added to a solution of approximately 25 μCi of ^68Ga-M2 in water (1 mL) and the layers were vigorously mixed for 5 min at room temperature. The tubes were centrifuged at 14,000 rpm for 2-3 min. Three samples of 100 μL of each layer were taken in pre-weighed vials, re-weighed, and counted in a […] (Wizard-2, Perkin Elmer). The partition coefficient was determined by calculating the ratio of counts per minute (cpm) in weight (g) of octanol/cpm in weight (g) of water and expressed as log P. At least three independent experiments were performed in triplicate to give the log P as the mean value±standard deviation (SD).

[2] = radiochemical stability of ^68Ga-M2 in PBS or DTPA challenge (radio-HPLC); format: physicochemical; details: room temperature, 3 h incubation
Protocol: (§1) The chemical, radiochemical and optical stability of radioactive and non-radioactive M2 were examined using a series of in vitro stability studies. M2 was incubated in PBS and water at room temperature and 4° C. for 14 days, followed by HPLC analysis of peptide and fluorescent stability. To assess radiochemical stability, ^68Ga-M2 was added to a solution of PBS or DTPA (500-fold excess), kept at room temperature for 1, 2 and 3 h, and analyzed by radio-HPLC. To evaluate serum stability, 150 μl of ^68Ga-M2 was added to 50% mouse serum and incubated at 37° C. An 80 μl aliquot was taken at each of the above-mentioned time points and added to 160 μl ice-cold acetonitrile. The samples were centrifuged at 14,000 rpm for 5 min and the supernatant was collected, filtered and analyzed by radio-HPLC.

in vitro = in vitro ADME; details: mouse, serum
Protocol: as §1

[3] = characterization of fluorescent properties; format: physicochemical
Protocol: Fluorescence intensity of the fluorophores was determined using the Fluorolog Tau-3 Spectrofluorometer (Horiba Jobin Yvon, Edison, N.J.) with excitation from a xenon arc lamp and absorbance was recorded using the DU-800 Spectrophotometer (Beckman Coulter, Brea Calif.). Fluorescence excitation and emission spectra were obtained at wavelengths of 785 and 830 nm respectively, with an integration time of 0.3 seconds for 1 μM solutions of IRDye 800CW, M2 and ^68Ga-M2 (n=4). Fluorescence measurements for IRDye 800CW and M2 were performed in aqueous solution under ambient conditions, whereas ^68Ga-M2 was prepared as previously described in NaOAc (pH 4) to provide an accurate representation of the ^68Ga-labeling scheme. Extinction coefficients were determined from the slope of absorbance at 785 nm as a function of the concentration of serial dilutions of each agent. Fluorescence quantum yield was determined by the comparative method of Williams et al. (Williams et al., 1983) using the quantum yield of ICGO (Φ=0.016) at 785/830 nm as a standard.

MMP-9 [4] = biological target: T1, MMP-9 (Mus musculus, UniProt P41245); experiment: NIRF imaging of ^68Ga-M2 in murine model of BMP-2 induced HO; format: in vivo; parameters: injected intramuscularly into each hind limb quadriceps muscle of nonobese diabetic/severely compromised immunodeficient (NOD/SCID) mice; from tissue; host or cells: hind limb muscle of living NOD/SCID mice injected with AdBMP2- or Adempty-transduced human fibroblasts; details: day 4 after implantation, 18 hr after i.v. administration
Protocol: (§2) A murine model of BMP-2 induced HO was used as previously described (Rodenberg et al., 2010). […] Control transduced cells were injected into the contralateral limb.
Based on the findings from the ex vivo analysis, mice were imaged on day 4 post-implantation with NIRF imaging to assess localization and in vivo fluorescence of M2 following ^68Ga-labeling. […] NIR fluorescence images were acquired 18 hr after intravenous administration of ^68Ga-M2 using a custom-built fluorescence imaging systems previously described Houston et al., 2005). Briefly, a field of view was illuminated with 785 nm of light from a laser diode, outfitted with a convex lens and diffuser to create a uniform excitation field. The fluorescence was collected through holographic and interference filters placed before a Nikon camera lens. The images were finally captured by an electron-multiplying charge-coupled device camera (PhotonMax 512; Princeton Instruments, Princeton, N.J.) with 200 to 400 milliseconds of integration time. For acquisition of white-light images, the optical filters were removed, and a low-power lamp illuminated the subject. Image acquisition was accomplished by V++ software (Auckland, New Zealand).

MMP-9 [5] = biological target: T1, MMP-9; parameters: injected intramuscularly into each hind limb quadriceps muscle of nonobese diabetic/severely compromised immunodeficient (NOD/SCID) mice; from tissue; host or cells: hind limb muscle of living NOD/SCID mice injected with AdBMP2- or Adempty-transduced human fibroblasts; details: in vivo, iv
Protocol: as §2
The anesthetized mice were injected intravenously with ^68Ga-M2 (200 μCi, 6 nmol) and μPET/CT images were acquired 1 h post-injection. To visualize the formation of ectopic bone, CT imaging was performed on days 4 and 11 post-implantation

MMP-2/9 = details: Koivunen et al., 1999; cited from earlier work
[6] = in vivo; Kuhnast et al., 2004; Sprague et al., 2006; cited from earlier work
[7] = 1 μM solutions, IRDye 800CW and M2 aqueous, ^68Ga-M2 in NaOAc pH 4

T1 sequence (P41245 108-730): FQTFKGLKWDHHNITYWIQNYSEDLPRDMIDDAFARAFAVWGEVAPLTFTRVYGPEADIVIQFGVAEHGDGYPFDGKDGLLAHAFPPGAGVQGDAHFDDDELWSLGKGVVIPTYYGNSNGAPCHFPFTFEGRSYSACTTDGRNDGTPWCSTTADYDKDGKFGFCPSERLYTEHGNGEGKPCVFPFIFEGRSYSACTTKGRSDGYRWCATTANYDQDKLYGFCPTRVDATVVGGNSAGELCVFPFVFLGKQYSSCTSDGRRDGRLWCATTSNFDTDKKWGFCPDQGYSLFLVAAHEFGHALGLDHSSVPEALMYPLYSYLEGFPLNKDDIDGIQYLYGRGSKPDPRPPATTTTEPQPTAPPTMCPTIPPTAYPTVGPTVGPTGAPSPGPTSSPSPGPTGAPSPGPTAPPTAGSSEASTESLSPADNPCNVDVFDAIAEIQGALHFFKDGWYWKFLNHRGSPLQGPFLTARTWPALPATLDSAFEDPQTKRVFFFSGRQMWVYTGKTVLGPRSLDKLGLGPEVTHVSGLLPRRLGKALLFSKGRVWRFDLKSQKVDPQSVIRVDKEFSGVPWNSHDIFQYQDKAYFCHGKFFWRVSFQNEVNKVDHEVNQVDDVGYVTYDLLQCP

Row | Compound | logP [1] | radiochemical purity ([2]; DTPA (500-fold excess)) [%] | radiochemical purity ([2]; PBS) [%] | remaining at 3 h (in vitro) [%] | Emission maximum [3, 7] [nm] | Excitation wavelength [3, 7] [nm] | Quantum yield ([3]; 785/830 nm, relative to ICG (Φ=0.016)) | Extinction coefficient ([3]; absorbance at 785 nm, serial dilutions, mean ± SD (n=4)) | absorbance maximum ([3]; optical spectrum) [nm] | localization of agent by NIR fluorescence (MMP-9 [4]) | clearance from circulation (MMP-9 [5]) | inhibitory activity against MMP-2/9 (MMP-2/9) | susceptibility to non-specific degradation [6]
1 | CC(C)C[C@@H]1NC(=O)[C@H]([C@@H](C)O)NC(=O)[C@H](Cc2ccccc2)NC(=O)CNC(=O)[C@H](Cc2c[nH]c3ccccc23)NC(=O)[C@H](Cc2c[nH]cn2)NC(=O)[C@H](C)NC(=O)[C@@H](NC(=O)[C@H](CCCCNC(=O)CCCCC[N+]2=C(C=CC3=C(Oc4ccc(S(=O)(=O)O)cc4)C(=CC=C4N(CCCCS(=O)(=O)O)c5ccc(S(=O)(=O)O)cc5C4(C)C)CCC3)C(C)(C)c3cc(S(=O)(=O)[O-])ccc32)NC(=O)CN2CCN(CC(=O)O)CCN(CC(=O)O)CCN(CC(=O)O)CC2)CCCCNC(=O)C[C@@H](C(=O)O)NC1=O (single isomer, unassigned) [^68Ga-M2, metal not drawn] | -2.09 ± 0.02 | > 95 | > 95 | > 95 | 830 | 785 | 0.031 | 108,069±7,918 M^−1cm^−1 | 785 | observed in the tissue region with BMP-2 producing cells | rapidly cleared from circulation via the kidneys | – | –
2 | c(CTTHWGFTLC) (also: cyclic, c(...), ring type and places not given here) | – | – | – | – | – | – | – | – | – | – | – | potent inhibitory activity | highly susceptible to non-specific degradation
